Experimental data reported in US20060183702A1.

Target: IIbIIIa receptor on human platelets (human) (UniProt P08514)
UniProt P08514, sequence (P08514 32-1039, chain 1 of 2): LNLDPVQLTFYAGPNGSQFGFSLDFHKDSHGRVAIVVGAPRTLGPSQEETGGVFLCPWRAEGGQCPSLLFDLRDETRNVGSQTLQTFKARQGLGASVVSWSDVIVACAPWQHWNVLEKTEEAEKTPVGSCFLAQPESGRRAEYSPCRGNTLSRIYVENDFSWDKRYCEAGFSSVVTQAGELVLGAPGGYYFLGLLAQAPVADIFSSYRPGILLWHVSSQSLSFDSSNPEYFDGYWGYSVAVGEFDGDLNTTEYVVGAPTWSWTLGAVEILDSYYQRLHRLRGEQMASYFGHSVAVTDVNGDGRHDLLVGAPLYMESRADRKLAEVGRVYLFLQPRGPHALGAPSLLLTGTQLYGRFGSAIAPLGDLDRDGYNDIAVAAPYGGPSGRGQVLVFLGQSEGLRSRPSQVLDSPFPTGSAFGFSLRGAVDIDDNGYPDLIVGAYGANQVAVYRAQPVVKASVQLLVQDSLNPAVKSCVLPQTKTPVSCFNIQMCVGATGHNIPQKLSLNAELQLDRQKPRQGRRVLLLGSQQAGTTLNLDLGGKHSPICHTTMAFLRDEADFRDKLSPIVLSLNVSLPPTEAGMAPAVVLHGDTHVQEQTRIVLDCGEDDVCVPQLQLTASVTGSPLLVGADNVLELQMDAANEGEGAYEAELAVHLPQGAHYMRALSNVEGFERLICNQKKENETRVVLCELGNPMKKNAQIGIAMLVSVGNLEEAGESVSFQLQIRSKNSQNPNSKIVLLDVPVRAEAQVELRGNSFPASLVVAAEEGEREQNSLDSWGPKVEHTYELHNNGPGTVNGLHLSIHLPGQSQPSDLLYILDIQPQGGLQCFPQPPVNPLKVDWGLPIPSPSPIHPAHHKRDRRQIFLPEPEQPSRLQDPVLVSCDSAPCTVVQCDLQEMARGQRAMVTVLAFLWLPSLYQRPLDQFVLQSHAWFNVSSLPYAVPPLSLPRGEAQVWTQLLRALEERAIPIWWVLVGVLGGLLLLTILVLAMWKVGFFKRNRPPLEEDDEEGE
UniProt P08514, sequence (P05106 27-788, chain 2 of 2, further chain): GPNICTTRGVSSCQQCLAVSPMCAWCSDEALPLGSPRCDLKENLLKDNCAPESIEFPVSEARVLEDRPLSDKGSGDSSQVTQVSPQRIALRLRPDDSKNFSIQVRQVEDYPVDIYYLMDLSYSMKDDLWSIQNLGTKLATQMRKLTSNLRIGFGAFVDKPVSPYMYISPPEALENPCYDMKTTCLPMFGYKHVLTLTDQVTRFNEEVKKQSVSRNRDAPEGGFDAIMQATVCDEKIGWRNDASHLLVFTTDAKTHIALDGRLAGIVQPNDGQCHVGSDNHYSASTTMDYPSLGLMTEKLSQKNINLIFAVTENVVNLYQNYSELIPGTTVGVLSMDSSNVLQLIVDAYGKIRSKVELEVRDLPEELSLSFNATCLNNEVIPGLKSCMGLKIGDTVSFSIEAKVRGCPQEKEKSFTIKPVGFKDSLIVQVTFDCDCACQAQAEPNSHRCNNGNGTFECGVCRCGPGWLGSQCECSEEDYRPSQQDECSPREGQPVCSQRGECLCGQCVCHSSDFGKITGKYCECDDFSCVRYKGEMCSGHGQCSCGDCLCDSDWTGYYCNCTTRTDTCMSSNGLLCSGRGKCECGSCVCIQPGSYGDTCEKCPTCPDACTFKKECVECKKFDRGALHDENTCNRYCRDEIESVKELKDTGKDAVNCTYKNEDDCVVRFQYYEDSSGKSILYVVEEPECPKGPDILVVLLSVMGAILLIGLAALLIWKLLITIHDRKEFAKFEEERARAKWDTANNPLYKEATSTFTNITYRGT

## Integrilin (peptide)
  IC50 (read off the curve), ADP-induced platelet aggregation (AIPA) in human PRP: 200 nM
